Target: T1, ScSch9-His (S. cerevisiae, UniProt P11792 1-824)
T1 construct: Sch9 kinase of S. cerevisiae; SCH9 synthesized with a C-terminal 6xHis tag and cloned into the E. coli expression vector p41; also called recombinant ScSch9-His; source: E. coli BL21(DE3), purified (IMAC, Ni-NTA Sepharose); not shown: 6xHis, C-terminal, kept
T1 sequence (looked up): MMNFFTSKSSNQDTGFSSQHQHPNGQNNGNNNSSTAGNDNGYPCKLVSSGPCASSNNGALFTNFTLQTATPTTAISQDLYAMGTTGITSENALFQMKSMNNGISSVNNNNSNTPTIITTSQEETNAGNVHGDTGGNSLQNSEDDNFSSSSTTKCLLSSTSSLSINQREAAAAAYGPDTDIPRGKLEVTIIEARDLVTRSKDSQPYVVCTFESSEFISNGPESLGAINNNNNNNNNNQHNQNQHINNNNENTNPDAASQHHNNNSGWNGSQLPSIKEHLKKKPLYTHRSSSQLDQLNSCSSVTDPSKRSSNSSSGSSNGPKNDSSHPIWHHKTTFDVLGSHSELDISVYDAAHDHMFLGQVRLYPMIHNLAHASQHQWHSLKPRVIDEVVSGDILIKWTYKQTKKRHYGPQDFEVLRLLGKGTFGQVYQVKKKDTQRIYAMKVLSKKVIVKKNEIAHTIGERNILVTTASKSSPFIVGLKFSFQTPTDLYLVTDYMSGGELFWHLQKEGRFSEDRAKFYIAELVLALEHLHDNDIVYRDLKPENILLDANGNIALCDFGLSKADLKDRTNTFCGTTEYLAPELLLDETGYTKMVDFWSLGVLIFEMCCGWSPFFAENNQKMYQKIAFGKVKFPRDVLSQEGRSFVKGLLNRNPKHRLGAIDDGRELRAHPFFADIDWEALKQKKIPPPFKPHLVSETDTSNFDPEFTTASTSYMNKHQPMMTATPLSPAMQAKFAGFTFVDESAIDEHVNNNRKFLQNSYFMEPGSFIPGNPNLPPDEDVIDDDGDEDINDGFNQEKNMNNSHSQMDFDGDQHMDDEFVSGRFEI
Experiment: co-IP; endogenous ScCst6 precipitated from S. cerevisiae WT lysate with rabbit anti-Cst6 antibody, bound to protein-G Sepharose beads, washed (IP buffer plus 500 mM NaCl), then incubated with 20 µg recombinant ScSch9-His for 3 h at 4°C; extensive washing; Western blot (anti-ScCst6, anti-6xHis)
Settings: both partners purified

B1: ScCst6 (endogenous) (natural protein, UniProt P40535 1-587, looked up)
chain: MFTGQEYHSVDSNSNKQKDNNKRGIDDTSKILNNKIPHSVSDTSAAATTTSTMNNSALSRSLDPTDINYSTNMAGVVDQIHDYTTSNRNSLTPQYSIAAGNVNSHDRVVKPSANSNYQQAAYLRQQQQQDQRQQSPSMKTEEESQLYGDILMNSGVVQDMHQNLATHTNLSQLSSTRKSAPNDSTTAPTNASNIANTASVNKQMYFMNMNMNNNPHALNDPSILETLSPFFQPFGVDVAHLPMTNPPIFQSSLPGCDEPIRRRRISISNGQISQLGEDIETLENLHNTQPPPMPNFHNYNGLSQTRNVSNKPVFNQAVPVSSIPQYNAKKVINPTKDSALGDQSVIYSKSQQRNFVNAPSKNTPAESISDLEGMTTFAPTTGGENRGKSALRESHSNPSFTPKSQGSHLNLAANTQGNPIPGTTAWKRARLLERNRIAASKCRQRKKVAQLQLQKEFNEIKDENRILLKKLNYYEKLISKFKKFSKIHLREHEKLNKDSDNNVNGTNSSNKNESMTVDSLKIIEELLMIDSDVTEVDKDTGKIIAIKHEPYSQRFGSDTDDDDIDLKPVEGGKDPDNQSLPNSEKIK
notes: Transcription factor Cst6 (ATF/CREB family) of S. cerevisiae, endogenous protein of the wild type (BY4741); also called endogenous ScCst6; source: endogenous, S. cerevisiae WT lysate, immunopurified with anti-Cst6 antibody on protein-G Sepharose beads
Q: Does B1 bind?
A: binds
